Measured values published in patent US20220305003A1, “METHODS OF TREATING CANCER WITH AN INHIBITOR OF ZNF827” (CHILDREN'S MEDICAL RESEARCH INSTITUTE, priority 2019, published 2022).

Legend:
[1] = target: T1, topoisomerase 2-binding protein 1 (TOPBP1) (human, UniProt Q92547 1-1522); assay: co-IP with Myc antibody, Western blot for TOPBP1
T1 construct: TOPBP1 in lysates of human cells, co-immunoprecipitated with Myc antibody
Protocol: (§1) Resuspended cells were lysed by incubation with rotation for 1 hour at 4° C. For Benzonase treatment to remove DNA, samples were incubated in the lysis buffer described above supplemented with 25 U Benzonase nuclease (Novagen, Merck Millipore) for 2 hours at 4° C. Lysates were subjected to centrifugation at 13,000 rpm for 40 minutes at 4° C. to remove cell debris. The supernatant was then transferred to a fresh cold low bind 1.5 mL tube for subsequent immunoprecipitation. For immunoprecipitation, protein lysates were incubated with antibody for the protein of interest (10 μg per mL lysate) or IgG control (Refer to Tables 4 and 5 for the list of antibodies used in this study), preincubated with Dynabeads Protein G, as per manufacturer's instructions (Life Technologies), with rotation overnight at 4° C. The following day, beads were washed three times in cold lysis buffer and separated on a magnetic rack. Proteins were then eluted from the beads by resuspension in 50 mM Glycine pH 2.8 and sodium dodecyl sulphate (SDS) sample buffer (0.2 M Tris-Cl, pH 6.8, 28% glycerol, 13.5% β-mercaptoethanol, 6% SDS, 6 mM EGTA, and 0.07% bromophenol blue) for 10 minutes at 70° C. and subjected to Western blot analysis, as described below, to detect various protein interactions. […]

[2] = target: T2, replication protein A (RPA), heterotrimeric complex (human, UniProt P27694 1-616; P15927 1-270; P35244 2-121); assay: co-IP of Myc-DDK-tagged ZNF827 mutants, Western blot for RPA
T2 construct: Endogenous RPA of human cell lines, detected with an RPA2 (RPA32) antibody; also called detected through RPA32; RPA2
T2 sequence (P27694 whole entry, chain 1 of 3): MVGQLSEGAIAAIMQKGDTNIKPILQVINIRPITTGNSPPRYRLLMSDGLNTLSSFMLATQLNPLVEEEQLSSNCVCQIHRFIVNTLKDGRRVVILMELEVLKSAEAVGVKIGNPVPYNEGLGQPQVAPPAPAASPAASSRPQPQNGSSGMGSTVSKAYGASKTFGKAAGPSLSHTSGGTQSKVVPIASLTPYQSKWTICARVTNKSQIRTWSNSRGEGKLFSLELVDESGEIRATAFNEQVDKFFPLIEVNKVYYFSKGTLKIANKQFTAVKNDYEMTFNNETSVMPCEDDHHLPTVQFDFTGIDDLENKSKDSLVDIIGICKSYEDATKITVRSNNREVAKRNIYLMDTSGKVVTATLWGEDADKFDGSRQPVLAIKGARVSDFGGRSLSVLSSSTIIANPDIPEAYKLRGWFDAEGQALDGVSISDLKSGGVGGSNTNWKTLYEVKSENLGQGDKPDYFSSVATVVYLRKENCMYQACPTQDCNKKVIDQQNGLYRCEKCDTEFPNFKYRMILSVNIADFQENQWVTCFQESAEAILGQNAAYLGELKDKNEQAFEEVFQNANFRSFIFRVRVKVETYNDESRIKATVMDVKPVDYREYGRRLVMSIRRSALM
T2 sequence (P15927 whole entry, chain 2 of 3): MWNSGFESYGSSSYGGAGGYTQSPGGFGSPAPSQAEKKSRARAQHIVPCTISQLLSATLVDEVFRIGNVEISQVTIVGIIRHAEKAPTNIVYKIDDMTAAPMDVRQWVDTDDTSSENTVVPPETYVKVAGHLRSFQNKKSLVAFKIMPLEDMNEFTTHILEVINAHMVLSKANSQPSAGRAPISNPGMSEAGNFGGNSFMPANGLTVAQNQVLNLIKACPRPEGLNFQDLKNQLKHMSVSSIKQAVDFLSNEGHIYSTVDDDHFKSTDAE
T2 sequence (P35244 2-121 limits assumed, chain 3 of 3): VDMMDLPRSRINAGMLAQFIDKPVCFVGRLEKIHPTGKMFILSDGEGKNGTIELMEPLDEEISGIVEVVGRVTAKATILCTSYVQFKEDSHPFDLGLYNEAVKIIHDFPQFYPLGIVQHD
Protocol: as §1

T1 sequence (Q92547 whole entry): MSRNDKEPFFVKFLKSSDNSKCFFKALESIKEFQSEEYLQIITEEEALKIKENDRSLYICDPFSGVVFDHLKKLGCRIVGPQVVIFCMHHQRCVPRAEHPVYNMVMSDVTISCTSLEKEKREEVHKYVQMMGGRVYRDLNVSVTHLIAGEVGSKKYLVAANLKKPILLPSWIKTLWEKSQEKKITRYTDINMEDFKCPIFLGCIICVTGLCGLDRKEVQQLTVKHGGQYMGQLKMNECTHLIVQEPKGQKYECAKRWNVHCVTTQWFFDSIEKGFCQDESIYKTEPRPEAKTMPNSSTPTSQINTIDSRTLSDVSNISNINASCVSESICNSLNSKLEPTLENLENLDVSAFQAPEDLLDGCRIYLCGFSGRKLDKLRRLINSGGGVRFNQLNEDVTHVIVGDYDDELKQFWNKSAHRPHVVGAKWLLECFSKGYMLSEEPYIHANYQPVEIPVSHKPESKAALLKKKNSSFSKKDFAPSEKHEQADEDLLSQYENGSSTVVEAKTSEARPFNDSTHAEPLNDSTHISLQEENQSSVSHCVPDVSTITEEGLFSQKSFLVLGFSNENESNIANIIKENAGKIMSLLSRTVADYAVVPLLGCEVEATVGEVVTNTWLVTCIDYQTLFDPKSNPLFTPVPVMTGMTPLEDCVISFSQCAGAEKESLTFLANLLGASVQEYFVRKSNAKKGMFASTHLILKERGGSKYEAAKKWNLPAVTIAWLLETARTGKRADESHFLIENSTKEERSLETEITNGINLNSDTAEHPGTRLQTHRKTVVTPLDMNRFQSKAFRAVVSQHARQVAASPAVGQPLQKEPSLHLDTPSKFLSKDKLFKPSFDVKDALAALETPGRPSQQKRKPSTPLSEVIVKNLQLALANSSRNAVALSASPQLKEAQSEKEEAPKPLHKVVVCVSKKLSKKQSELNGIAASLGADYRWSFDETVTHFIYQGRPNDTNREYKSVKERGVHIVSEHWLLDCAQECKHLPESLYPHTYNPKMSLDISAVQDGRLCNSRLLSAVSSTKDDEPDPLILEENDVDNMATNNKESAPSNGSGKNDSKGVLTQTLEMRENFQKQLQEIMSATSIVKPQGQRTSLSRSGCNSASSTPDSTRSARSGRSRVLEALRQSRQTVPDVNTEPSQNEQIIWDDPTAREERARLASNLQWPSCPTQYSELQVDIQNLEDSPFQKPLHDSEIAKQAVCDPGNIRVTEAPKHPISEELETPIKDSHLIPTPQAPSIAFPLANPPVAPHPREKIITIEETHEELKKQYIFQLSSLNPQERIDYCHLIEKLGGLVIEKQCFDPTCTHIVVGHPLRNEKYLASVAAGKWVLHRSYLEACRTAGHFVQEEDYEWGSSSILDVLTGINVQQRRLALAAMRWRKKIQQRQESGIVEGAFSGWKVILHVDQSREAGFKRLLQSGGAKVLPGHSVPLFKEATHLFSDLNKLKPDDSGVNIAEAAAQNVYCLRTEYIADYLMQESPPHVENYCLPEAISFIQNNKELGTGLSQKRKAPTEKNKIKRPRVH

B1: ZNF827 mutant with no zinc fingers (ZnF1-9 deleted) (other)
chain: MPRRKQEQPKRLPSHVSRQEEAEGELSEGEHWYGNSSETPSEASYGEVQENYKLSLEDRIQEQSTSPDTSLGSTTPSSHTLELVALDSEVLRDSLQCQDHLSPGVSSLCDDDPGSNKPLSSNLRRLLEAGSLKLDAAATANGRVESPVNVGSNLSFSPPSHHAQQLSVLARKLAEKQEQNDQYTPSNRFIWNQGKWLPNSTTTCSLSPDSAILKLKAAANAVLQDKSLTRTEETMRFESFSSPFSSQSASSTLAALSKKVSERSLTPGQEHPPPASSFLSLASMTSSAALLKEVAARAAGSLLAEKSSLLPEDPLPPPPSEKKPEKVTPPPPPPPPPPPPPPPQSLELLLLPVPKGRVSKPSNSASEEESGKPQHFLRTEAKVKEEIPDPDVKGSPHLSDSACLGQQREGGGTELVGTMMTSNTPERTSQGGAGVSPLLVKEEPKEDNGLPTSFTLNAADRPATRTRPLEQKLISEEDLAANDILDYKDDDDKV
notes: also called ZnF1-9d mutant
binding result [1]: no binding
binding result [2]: no binding
